Experimental data as given in the supplement of paper PMC10567573.
± gives the standard deviation.

Experiment: protein stability index of a GFP-peptide fusion (GPS, HEK-293T) (PSI 1-6); higher = more stable
[1] = treatment: DMSO, c terminus: a fixed tail appended
[2] = treatment: MLN4924 1 uM, 8 h, c terminus: a fixed tail appended
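Further: 24-mer peptide tiles fused after GFP, lentivirally expressed, FACS-sorted into six equal bins by GFP/DsRed ratio, decoded by Illumina sequencing, PSI is the read-weighted mean bin number.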

Sequence | protein stability index [1] | protein stability index [2] | protein stability index (treatment: DMSO, c terminus: native) | protein stability index (treatment: MLN4924 1 uM, 8 h, c terminus: native)
RGVHCWVCDESVRKLSSAVRSGIV [PRIM1] | 2.24 ± 0.22 | 2.19 ± 0.14 | – | –
RHKSGVHQPPQAGAGDVVLLQREL [LYSMD4] | 4.08 ± 0.22 | 4.16 ± 0.092 | – | –
RHMREENLRLQRKLQREMERREAL [CCDC6] | 3.96 ± 0.36 | 4.39 ± 0.15 | – | –
RHQRIHTGERPYECNECGKAFSRS [ZSCAN9] | 3.29 ± 0.24 | 3.82 ± 0.31 | – | –
RILQDEQYLMASDMAGKIKLWDLR [DCAF4] | 2.75 ± 0.34 | 3.01 ± 0.12 | – | –
RITITESNMKSRYTTEFHELEKIG [WEE1] | 3.03 ± 0.37 | 3.59 ± 0.55 | – | –
RKDLAKLHREVRSTPLTATPGGRG [VTI1B] | 4.38 ± 0.17 | 4.45 ± 0.17 | – | –
RKKSKPKKCVKKFVEYCDVNNDKS [SMOC2] | 3.52 ± 0.22 | 3.93 ± 0.58 | – | –
RKMEVEELSPLALGRFSLTPAEGD [CDC25B] | 4.66 ± 0.36 | 4.79 ± 0.13 | – | –
RKVVQSLEQTAREILTLLQGVHQG [TSN] | 2.34 ± 0.31 | 2.81 ± 0.53 | – | –
RLFPYSQYYRWLNYGGVIKNYFQH [PRIM1] | 2.15 ± 0.75 | 2.22 ± 0.52 | – | –
RLFTVNDVKVGGSKYGIINLQSLK [DCAF4] | 2.14 ± 0.14 | 2.27 ± 0.37 | – | –
RLLELMNQHDTEMKYYIVHLKRHF [DYRK1B] | 2.35 ± 0.22 | 2.54 ± 0.48 | – | –
RLSSRYRYGQLIEINSHSLFSKWF [TRIP13] | 2.12 ± 0.28 | 2.04 ± 0.38 | – | –
RMKEPSSPPPAPTSSTFGLQDGNL [CHCHD6] | 4.63 ± 0.26 | 4.53 ± 0.35 | – | –
RMLIHKTEDVNTLDSEKRTPLHVA [ANKRD44] | 4.06 ± 0.22 | 4.15 ± 0.39 | – | –
RNHMENGGDHRYVNNYTNSFGGEW [TRIM29] | 3.13 ± 0.16 | 3.15 ± 0.2 | – | –
RNRPKSTVNTHYFSIDEELVYENF [CDC14A] | 2.99 ± 0.37 | 3.39 ± 0.38 | – | –
RPDRSSQGGSLPSEEKGHPQEESE [CHGB] | 5.75 ± 0.27 | 5.48 ± 0.38 | – | –
RPEKHTKEQILEFLVLEQFLTILP [ZNF232] | 3.03 ± 0.62 | 3.4 ± 0.66 | – | –
RPFWEEEKTFWKEEKSFWEMEKSF [CCDC70] | 2.71 ± 0.2 | 3.19 ± 0.26 | – | –
RPLARPIKRGDILPPEKGREVAKE [RHOBTB1] | 5.17 ± 0.088 | 4.97 ± 0.12 | – | –
RPPFGAAAVPGTQLSPSPTPASQS [SNAP91] | 4.79 ± 0.16 | 4.86 ± 0.055 | – | –

Sequence | protein stability index [1] | protein stability index [2] | protein stability index (treatment: DMSO, c terminus: native) | protein stability index (treatment: MLN4924 1 uM, 8 h, c terminus: native)
RPPLRRVRMSADAMLKALLGSKHK [TNNI2] | 3.01 ± 0.28 | 3.21 ± 0.29 | – | –
RQAELAIERCIFPERIYQGSSGSY [PI4K2A] | 2.72 ± 0.39 | 2.82 ± 0.28 | – | –
RQNDILQVVSQGWKYFKGNFYYFS [CD207] | 2.3 ± 0.73 | 2.06 ± 0.58 | – | –
RQNSAPARMLSSNERDSSEPGNFI [CDC25A] | 5.54 ± 0.31 | 5.45 ± 0.14 | – | –
RRDCMWSGFSARERLERAVSDRLA [MYCL] | 3.31 ± 0.23 | 3.4 ± 0.18 | – | –
RRKSEAGSGAASSSGEDKENDGFV [CDC25B] | 5.42 ± 0.29 | 5.49 ± 0.18 | – | –
RRRGSDPASGEVEASQLRRLNIKK [TMEM40] | 5.26 ± 0.23 | 5.02 ± 0.24 | – | –
RRRPRQKEAGLSQSHDDLSNATAT [C2CD2L] | 5.23 ± 0.19 | 5.26 ± 0.24 | – | –
RRTPPGQQRPHPRSHSREPRAERK [ELOA2] | 5.332 ± 0.008 | 5.58 ± 0.17 | – | –
RSDVEKGGKIIMPPSALDQLSRLN [UFD1] | 3.55 ± 0.41 | 3.97 ± 0.28 | – | –
RSLQLRIQELELQAQIHGLPVPPT [TFE3] | 3.01 ± 0.19 | 2.89 ± 0.21 | – | –
RSNVDFLETPELTSTMLVPASWWI [NECAB1] | 2.21 ± 0.43 | 2.23 ± 0.48 | – | –
RTMAPEKLLKSMPILQGQIDALLE [SNAP91] | 2.83 ± 0.16 | 2.89 ± 0.27 | – | –
RTPLMYCVLADRLDCADALLKAGA [INVS] | 2.16 ± 0.35 | 2.08 ± 0.15 | – | –
RTRDYKKTSLAPYVKVFEHFLENL [PRIM1] | 2.11 ± 0.4 | 2.48 ± 0.54 | – | –
RTSVGVAVLGGFLYAVGGQDGVSC [KLHL20] | 2.37 ± 0.17 | 2.45 ± 0.38 | – | –
RVEASHLTTSQERELGIRQRDEQL [FBF1] | 4.91 ± 0.22 | 5.13 ± 0.22 | – | –
RVEVLTDAGGWVLIDRSGRHFGTI [KCTD13] | 2.37 ± 0.46 | 2.38 ± 0.7 | – | –
RVRTVLNEKQLHTLRTCYAANPRP [ISL2] | 2.74 ± 0.27 | 2.96 ± 0.2 | – | –
RVRVELQEQNGRLQAELAAQEALR [LRRC45] | 4.58 ± 0.079 | 3.98 ± 0.55 | – | –
RYADLEAVNRARRPLARPIKPNEI [RHOBTB2] | 3.77 ± 0.21 | 3.7 ± 0.22 | – | –
RYHVIRKLGWGHFSTVWLCWDMQG [SRPK2] | 2.83 ± 0.74 | 2.69 ± 0.27 | – | –
RYLFEEDNLLRSTQKLSHSTKPSG [MATN2] | 3.82 ± 0.3 | 3.92 ± 0.3 | – | –

Sequence | protein stability index [1] | protein stability index [2] | protein stability index (treatment: DMSO, c terminus: native) | protein stability index (treatment: MLN4924 1 uM, 8 h, c terminus: native)
RYPTISMVKPLLHMLLNTTLNIKE [ZBED1] | 2.83 ± 0.58 | 3.37 ± 0.72 | – | –
RYQHGIAVIGNFLYVVGGQSNYDT [KLHL13] | 2.42 ± 0.49 | 2.44 ± 0.5 | – | –
SAARVVLTSLLACLPAGPRVYFLK [DUSP5] | 2.43 ± 0.23 | 2.41 ± 0.12 | – | –
SAFADIIHSLKESGQLWLDAYLHQ [FADS1] | 2.16 ± 0.4 | 2.25 ± 0.49 | – | –
SATLSWKQPPLSTVPADGYILELD [TRIM9] | 3.52 ± 0.33 | 3.63 ± 0.37 | – | –
SCTPRMNRRMVGPDVIPLPHIYGA [FAM189A2] | 2.23 ± 0.22 | 2.27 ± 0.2 | – | –
SDKETDIDDRYGDLDSRTDSDIPE [CDS1] | 5.54 ± 0.31 | 5.43 ± 0.27 | – | –
SDLTLYLVVAVAAVSCVFLAFVIV [PCDHGA10] | 2.97 ± 0.61 | 2.71 ± 0.5 | – | –
SDVIEYAKQKLDFFIRTSDSFDKF [PCMTD2] | 2.36 ± 0.22 | 2.48 ± 0.19 | – | –
SEADPQALLQAMKDLDGMDADILG [FBF1] | 5.28 ± 0.25 | 5.16 ± 0.35 | – | –
SEEELAAATTSKEQEPIGTDLDAV [MYBL2] | 5.71 ± 0.19 | 5.58 ± 0.25 | – | –
SEEIRFYQLGEEAMEKFREDEGFL [KCNA3] | 4.37 ± 0.27 | 4.44 ± 0.12 | – | –
SEMEEEKRQAVNKAVANMQGEMDR [ZMYND11] | 5.41 ± 0.25 | 5.42 ± 0.29 | – | –
SESNSATVEEPPTDPIPEDEKKE [SMARCE1] | – | – | 5.58 ± 0.47 | 5.41 ± 0.1
SFCHGSSLKRHLKTHTGEKPHRCH [ZNF449] | 3.45 ± 0.27 | 3.61 ± 0.34 | – | –
SFPPSLSSSSSSSPTSGSPRGSHS [LURAP1L] | 4.96 ± 0.2 | 5.01 ± 0.16 | – | –
SFTSSDKTIKSFFPHSGKDCLLCF [C8orf76] | 2.47 ± 0.51 | 1.9 ± 0.44 | – | –
SGLDSPSHAAPGPSPDSWVPRPGT [FCHO1] | 4.08 ± 0.18 | 4.25 ± 0.19 | – | –
SGREHNFTRPNEKGEYEVAEGIGS [BTBD10] | 5.11 ± 0.25 | 4.99 ± 0.33 | – | –
SGRTQAQTRRASALIDRPAPYFER [EPB41L3] | 3.5 ± 0.56 | 3.72 ± 0.36 | – | –
SGSLEILQLLLGCKARMERDGYGM [FEM1A] | 2.92 ± 0.51 | 3.05 ± 0.6 | – | –
SGVCLFAVFIALLPILGHRDYKIQ [PTGFR] | 3.6 ± 0.45 | 3.37 ± 0.12 | – | –
SHSASATGNVCIEEIDVDGKFIRL [LMNB1] | 3.14 ± 0.22 | 3.48 ± 0.23 | – | –

Sequence | protein stability index [1] | protein stability index [2] | protein stability index (treatment: DMSO, c terminus: native) | protein stability index (treatment: MLN4924 1 uM, 8 h, c terminus: native)
SHSCYHDTRSGFWYVCRTQGVEGD [TRIM35] | 2.52 ± 0.27 | 2.36 ± 0.29 | – | –
SIGLRDYAGNLHESGVHGALLALD [PPFIA4] | 3.48 ± 0.11 | 3.73 ± 0.45 | – | –
SKAKKLVCNINKGCGYGCQLHHVV [FUT8] | 2.71 ± 0.43 | 2.19 ± 0.4 | – | –
SKKEGKRQGPKEPPRKSGSFHSSG [PBXIP1] | 4.98 ± 0.32 | 5.2 ± 0.2 | – | –
SKSGYLRYSCESRIRSYLREVSSY [DFFB] | 2.1 ± 0.17 | 2.34 ± 0.37 | – | –
SLFSPVTEDSPLGTVVALLNVHDL [PCDHGA10] | 2.31 ± 0.2 | 2.32 ± 0.3 | – | –
SLKLASSELERLIVPNSNGVITTT [JUNB] | 3.24 ± 0.41 | 3.4 ± 0.54 | – | –
SLLCLLCSNSQEHGAHKHHPIEEA [TRIM43] | 2.67 ± 0.2 | 2.77 ± 0.21 | – | –
SLVRDTIARVHGTFGAAACSIGFA [POP5] | 2.31 ± 0.38 | 2.48 ± 0.22 | – | –
SMPVRLLGHSPVLRNITNSQAPDG [CDC25B] | 3.23 ± 0.22 | 3.4 ± 0.24 | – | –
SPEIMASVLNGKFANLIKEFVIID [CDC25A] | 2.47 ± 0.29 | 2.23 ± 0.19 | – | –
SPFAQFACDNGLNVRGGKPDDITV [PPTC7] | 4.22 ± 0.23 | 4.14 ± 0.16 | – | –
SPFSVHPKTGRISVPIDLQKVDQF [PRIM1] | 3.18 ± 0.59 | 3.42 ± 0.37 | – | –
SPLQTIGEEQTQNPYTELLVLKAH [WDR41] | 3.78 ± 0.078 | 3.75 ± 0.3 | – | –
SQIETLTSVFQKKLCTAHMCSTLE [MATN2] | 2.03 ± 0.2 | 2.81 ± 0.74 | – | –
SQSLWNRLSVLLNLLPAAGELQES [SMG5] | 2.75 ± 0.37 | 2.25 ± 0.18 | – | –
SQVSWEQDLKLFLQEPGVFSPTPP [FCHSD1] | 3.36 ± 0.4 | 3.61 ± 0.1 | – | –
SQWDVLSGDCDQRFRFPSPILKVQ [RBBP5] | 3.34 ± 0.14 | 3.38 ± 0.32 | – | –
SRFYEIHARARDQGQPAMEGHCVI [PCDHGC5] | 2.82 ± 0.27 | 2.54 ± 0.15 | – | –
SRNEFDRTIAETEAAYLKILESSQ [SSNA1] | 3.95 ± 0.22 | 4.04 ± 0.34 | – | –
